Experimental data reported in patent publication US20260167721A1 (ABLEXIS, published 2026).

Columns and labels:
[1] = biological target: T1, human CD3 (TCR/CD3 complex on the cell surface) (human, UniProt P07766 23-207; P04234 22-171; P09693 23-182); assay: flow cytometry, Jurkat WT cells, 10 ug/mL
T1 construct: whole, on cells; Native CD3 on human Pan-T cells or Jurkat wild-type cells; also called CD3 on Pan-T cells; CD3 on Jurkat WT cells

[2] = biological target: T1, human CD3 (TCR/CD3 complex on the cell …); assay: flow cytometry, Jurkat WT gMFI over Jurkat KO gMFI, 10 ug/mL
[3] = biological target: T1, human CD3 (TCR/CD3 complex on the cell …); assay: flow cytometry, Pan-T cells, 1 ug/mL
[4] = biological target: T1, human CD3 (TCR/CD3 complex on the cell …); assay: flow cytometry, Jurkat WT gMFI over Jurkat KO gMFI, 1 ug/mL
[5] = biological target: T1, human CD3 (TCR/CD3 complex on the cell …); assay: flow cytometry, Jurkat WT cells, 1 ug/mL
[6] = biological target: T1, human CD3 (TCR/CD3 complex on the cell …); assay: flow cytometry, Pan-T cells, 10 ug/mL

T1 sequence (P07766 23-207, chain 1 of 3): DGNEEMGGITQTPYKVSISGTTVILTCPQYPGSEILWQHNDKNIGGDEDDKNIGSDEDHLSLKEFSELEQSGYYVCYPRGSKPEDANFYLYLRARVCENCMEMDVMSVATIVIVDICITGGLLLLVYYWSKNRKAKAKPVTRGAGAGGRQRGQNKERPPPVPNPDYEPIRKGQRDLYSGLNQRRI
T1 sequence (P04234 22-171, chain 2 of 3): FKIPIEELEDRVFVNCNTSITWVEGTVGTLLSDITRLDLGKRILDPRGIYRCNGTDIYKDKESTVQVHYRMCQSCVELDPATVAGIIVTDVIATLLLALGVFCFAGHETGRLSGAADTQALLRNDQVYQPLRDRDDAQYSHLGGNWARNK
T1 sequence (P09693 23-182, chain 3 of 3): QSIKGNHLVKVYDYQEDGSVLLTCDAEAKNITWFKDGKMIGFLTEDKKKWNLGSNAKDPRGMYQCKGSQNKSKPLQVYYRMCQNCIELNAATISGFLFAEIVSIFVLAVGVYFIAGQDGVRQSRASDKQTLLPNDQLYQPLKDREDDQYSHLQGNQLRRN

gMFI [1] | Jurkat WT/KO (Fold) [2] | % Positive [3] | gMFI [3] | Jurkat WT/KO (Fold) [4] | gMFI [5] | % Positive [6] | gMFI [6] | Binder
28800 gMFI | 9.9 fold | 98% | 66500 gMFI | 6.6 fold | 20300 gMFI | 99.8% | 225000 gMFI | CD3 × CD33-BspAb78 (bispecific antibody) chain 1: EVQLVESGGGLVKFGGSLRLSCAASGFTFSRYSMNWVRQAPGKCLEWVSSISSSSSYKYYADSVKGRFTISRDNAKNSLYLQMNSLRAEDTAVYYCAREGGNSHGMDVWGQGTTVTVSSGGGGSGGGGSGGGGSGGGGSNFMLTQPHSVSESPGKTVTISCTRSSGSIASNYVQWYQQRPGSSPTTVIYEDNQRPSGVPDRFSGSIDSSSNSASLTISGLKTEDEADYYCQSYDSSNRVFGCGTKLTVLDKTHTCPPCPAPEFEGGPSVFLFPPKPKDTLMISRTPEVTCVVVDVSHEDPEVKFNWYVDGVEVHNAKTKPREEQYNSTYRVVSVLTVLHQDWLNGKEYKCKVSNKALPASIEKTISKAKGQPREPQVYTLPPCREEMTKNQVSLWCLVKGFYPSDIAVEWESNGQPENNYKTTPPVLDSDGSFFLYSKLTVDKSRWQQGNVFSCSVMHEALHNHYTQKSLSLSPGK chain 2: EVQLVQSGAEVKKPGSSVKVSCKASGYTITDSNIHWVRQAPGQSLEWIGYIYPYNGGTDYNQKFKNRATLTVDNPTNTAYMELSSLRSEDTAFYYCVNGNPWLAYWGQGTLVTVSSASTKGPSVFPLAPSSKSTSGGTAALGCLVKDYFPEPVTVSWNSGALTSGVHTFPAVLQSSGLYSLSSVVTVPSSSLGTQTYICNVNHKPSNTKVDKRVEPKSCDKTHTCPPCPAPEFEGGPSVFLFPPKPKDTLMISRTPEVTCVVVDVSHEDPEVKFNWYVDGVEVHNAKTKPREEQYNSTYRVVSVLTVLHQDWLNGKEYKCKVSNKALPASIEKTISKAKGQPREPQVCTLPPSREEMTKNQVSLSCAVKGFYPSDIAVEWESNGQPENNYKTTPPVLDSDGSFFLVSKLTVDKSRWQQGNVFSCSVMHEALHNRFTQKSLSLSPGK chain 3: DIQLTQSPSTLSASVGDRVTITCRASESLDNYGIRFLTWFQQKPGKAPKLLMYAASNQGSGVPSRFSGSGSGTEFTLTISSLQPDDFATYYCQQTKEVPWSFGQGTKVEVKRTVAAPSVFIFPPSDEQLKSGTASVVCLLNNFYPREAKVQWKVDNALQSGNSQESVTEQDSKDSTYSLSSTLTLSKADYEKHKVYACEVTHQGLSSPVTKSFNRGEC
20400 gMFI | 8.9 fold | 99.3% | 34700 gMFI | 4 fold | 8830 gMFI | 99.4% | 166000 gMFI | CD3 × CD33-BspAb79 (bispecific antibody) chain 1: QVQLQESGPGLVKPSETLSLTCTVSGGSISSYYWSWIRQPAGKCLEWIGRIYASGSTYYNPSLKSRVTMSVDTSKNQFSLKLSSVTAADTAVYYCAREKRSRLYFDYWGQGTLVTVSSGGGGSGGGGSGGGGSGGGGSNFMLTQPHSVSESPGKTVTISCTRSSGSIASNYVQWYQQRPGSSPTTVIYEDNQRPSGVPDRFSGSIDSSSNSASLTISGLKTEDEGDYYCQSYDRSNRVFGCGTKLTVLDKTHTCPPCPAPEFEGGPSVFLFPPKPKDTLMISRTPEVTCVVVDVSHEDPEVKFNWYVDGVEVHNAKTKPREEQYNSTYRVVSVLTVLHQDWLNGKEYKCKVSNKALPASIEKTISKAKGQPREPQVYTLPPCREEMTKNQVSLWCLVKGFYPSDIAVEWESNGQPENNYKTTPPVLDSDGSFFLYSKLTVDKSRWQQGNVFSCSVMHEALHNHYTQKSLSLSPGK chain 2: EVQLVQSGAEVKKPGSSVKVSCKASGYTITDSNIHWVRQAPGQSLEWIGYIYPYNGGTDYNQKFKNRATLTVDNPTNTAYMELSSLRSEDTAFYYCVNGNPWLAYWGQGTLVTVSSASTKGPSVFPLAPSSKSTSGGTAALGCLVKDYFPEPVTVSWNSGALTSGVHTFPAVLQSSGLYSLSSVVTVPSSSLGTQTYICNVNHKPSNTKVDKRVEPKSCDKTHTCPPCPAPEFEGGPSVFLFPPKPKDTLMISRTPEVTCVVVDVSHEDPEVKFNWYVDGVEVHNAKTKPREEQYNSTYRVVSVLTVLHQDWLNGKEYKCKVSNKALPASIEKTISKAKGQPREPQVCTLPPSREEMTKNQVSLSCAVKGFYPSDIAVEWESNGQPENNYKTTPPVLDSDGSFFLVSKLTVDKSRWQQGNVFSCSVMHEALHNRFTQKSLSLSPGK chain 3: DIQLTQSPSTLSASVGDRVTITCRASESLDNYGIRFLTWFQQKPGKAPKLLMYAASNQGSGVPSRFSGSGSGTEFTLTISSLQPDDFATYYCQQTKEVPWSFGQGTKVEVKRTVAAPSVFIFPPSDEQLKSGTASVVCLLNNFYPREAKVQWKVDNALQSGNSQESVTEQDSKDSTYSLSSTLTLSKADYEKHKVYACEVTHQGLSSPVTKSFNRGEC
